# Laboratory results reported in patent publication US20220305056A1 (Janssen / Centocor, published 2022).
# Ends that are not written are not given here.
# B1: CEN-63-13 mAb (antibody, human IgG1, V domains shown)
# VH: QSVKESGGRLVTPGTPLTLTCTVSGFSLSSNAIDWVRQAPGKGLEWIGILGRSGSTYYASWAKGRFTISRTSSTTVDLKITSPTTEDTATYFCARHFYLWGPGTLVTVSS
# VL: AQVLTQTASPVSAAVGGTVTINCQASQSVYSNYLSWYQQKPGQPPKLLMATTSTLEPGVPSRFKGSGSGTQFTLTISDLECDDAATYYCAGGYSVDIWVFGGGTEVVVKR
# notes: also called CEN-63 C13; CEN-63 C13 anti-G4S antibody
# How the values were obtained:
# [1] = molecular target: T1, immobilized scFv containing a G4S linker; assay: ELISA, scFv coated on the plate, anti-human Fc HRP detection
# T1 construct: Antigen coated on the ELISA plate at 0.1 ug/mL
# Procedure: MaxiSorb 96 plates (Nunc; Roskilde, Denmark) were coated with antigen at 0.1 μg/mL concentration and incubated overnight at 4° C. Plates were washed 3 times with PBS and blocked with PBS plus 5% milk powder for 1 hour at room temperature. Plates were washed 3 times with PBS. […] Plates were washed 3 times with PBS. […] Optical density at 450 nm was measured on (SpectraMax M5, Molecular Devices; San Jose, Calif.). Data was analyzed in GraphPad Prism software (Graphpad).
# [2] = molecular target: T2, H3-23/L1-39 scFv with (G4S)4 peptide linker; assay: bio-layer interferometry
# T2 construct: also called inert scFv
# SEQ ID NO 50 = molecular target: T3, SEQ ID NO 50 (not fully specified; also: biotinylated); assay: bio-layer interferometry, truncated peptide panel
# T3 construct: Truncation variant of the (G4S)4 linker; also called truncated G4S peptide; L6
# T3 peptide: GGGGSGGGGSGGGGS
# Procedure: (§1) All reactions were performed at 25° C. in 1× kinetics buffer (ForteBio; Fremont, Calif.). Data were collected with Octet Data Acquisition program (ForteBio) and analyzed using Octet Data Analysis program (ForteBio).
# SEQ ID NO 46 = molecular target: T4, SEQ ID NO 46 (also: biotinylated); assay: bio-layer interferometry, truncated peptide panel
# T4 construct: Truncation variant of the (G4S)4 linker; also called truncated G4S peptide
# T4 peptide: GGGGSGGGGSGGGGSGGGG
# Procedure: as §1
# SEQ ID NO 47 = molecular target: T5, SEQ ID NO 47 (also: biotinylated); assay: bio-layer interferometry, truncated peptide panel
# T5 construct: Truncation variant of the (G4S)4 linker; also called truncated G4S peptide
# T5 peptide: GGGGSGGGGSGGGGSGGG
# Procedure: as §1
# SEQ ID NO 52 = molecular target: T6, SEQ ID NO 52 (also: biotinylated); assay: bio-layer interferometry, truncated peptide panel
# T6 construct: Truncation variant of the (G4S)4 linker; also called truncated G4S peptide
# T6 peptide: GGGGSGGGGSGGG
# Procedure: as §1
# [3] = molecular target: T7, 10-mer peptide (SEQ ID NO:55) (also: biotinylated); assay: bio-layer interferometry, truncated peptide panel
# T7 construct: Truncation variant of the (G4S)4 linker; smallest linker detected by CEN-63-13; also called smallest linker
# T7 peptide: GGGGSGGGGS
# Procedure: as §1
# SEQ ID NO 49 = molecular target: T8, SEQ ID NO 49 (also: biotinylated); assay: bio-layer interferometry, truncated peptide panel
# T8 construct: Truncation variant of the (G4S)4 linker; also called truncated G4S peptide
# T8 peptide: GGGGSGGGGSGGGGSG
# Procedure: as §1
# SEQ ID NO 51 = molecular target: T9, SEQ ID NO 51 (also: biotinylated); assay: bio-layer interferometry, truncated peptide panel
# T9 construct: Truncation variant of the (G4S)4 linker; also called truncated G4S peptide
# T9 peptide: GGGGSGGGGSGGGG
# Procedure: as §1
# SEQ ID NO 53 = molecular target: T10, SEQ ID NO 53 (not fully specified; also: biotinylated); assay: bio-layer interferometry, truncated peptide panel
# T10 construct: Truncation variant of the (G4S)4 linker; also called truncated G4S peptide
# T10 peptide: GGGGSGGGGSGG
# Procedure: as §1
# SEQ ID NO 48 = molecular target: T11, SEQ ID NO 48 (also: biotinylated); assay: bio-layer interferometry, truncated peptide panel
# T11 construct: Truncation variant of the (G4S)4 linker; also called truncated G4S peptide
# T11 peptide: GGGGSGGGGSGGGGSGG
# Procedure: as §1
# [4] = molecular target: T12, cell-surface scFv with a G4S linker (CAR-T construct on transfected HEK293T cells); assay: flow cytometry on HEK293T cells transfected with CAR-T constructs, fluorescent anti-human Fc detection
# T12 construct: also called cell surface antigen; linker containing scFv protein construct
# Procedure: HEK293-T cells were cultured in standard DMEM with (Dulbecco's Modified Eagle's Medium Components comprising glucose, L-glutamine, NaHCO₃, and phenol red). Transfection of cells with mRNA for linker containing scFv protein constructs was carried out following manufacturer's protocol (MessengerMax, Invitrogen). 5 μg of IVT synthesized mRNA was transfected in HEK293-T cells at a density of 1×10⁶ cells/mL and incubated 24 hours prior to flow cytometry analysis. Cells were added to 96 well U bottom plates at a concentration of 100,000 cells/well. Plates were spun at 300 g for 3 minutes and supernatant was discarded. Sytox green (Invitrogen) Live/Dead stain was added to the cells and incubated for 10 minutes at room temperature in a dark chamber. The cells were washed twice with PBS, and the supernatant was discarded. A 12 point 1:3 serial dilution with a starting concentration of 100 nM of primary antibody was prepared. The dilution series was added to cells and incubated for 1 hour at 4° C. in the dark. Plates were spun at 300 g for 3 minutes, the supernatants discarded, and cells washed twice with FACS running buffer (Becton Dickinson (BD), Franklin Lakes, N.J.). Secondary antibody (Anti human Fc, Biolegend; San Diego, Calif.) was diluted in FACS buffer according to manufacturer's protocol. 50 μl of secondary antibody was added to the cells and incubated for 30 minutes at 4° C. in the dark. […]
# (G4S)4 peptide = molecular target: T13, (G4S)4 peptide (biotinylated); assay: bio-layer interferometry, biotinylated peptide on streptavidin sensor
# T13 construct: Biotinylated peptide immobilised on streptavidin biosensors for BLI; also called WT (G4S)4 peptide linker; WT G4S linker
# T13 peptide: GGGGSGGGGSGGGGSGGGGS
# Procedure: as §1
# [5] = molecular target: T1, immobilized scFv containing a G4S linker; assay: ELISA and flow cytometry (FIGS. 2 and 3)
# Procedure: Plates were washed 3 times with PBS. […] Plates were washed 3 times with PBS. […] Optical density at 450 nm was measured on (SpectraMax M5, Molecular Devices; San Jose, Calif.). Data was analyzed in GraphPad Prism software (Graphpad).
# HEK293-T cells were cultured in standard DMEM with (Dulbecco's Modified Eagle's Medium Components comprising glucose, L-glutamine, NaHCO₃, and phenol red). Transfection of cells with mRNA for linker containing scFv protein constructs was carried out following manufacturer's protocol (MessengerMax, Invitrogen). 5 μg of IVT synthesized mRNA was transfected in HEK293-T cells at a density of 1×10⁶ cells/mL and incubated 24 hours prior to flow cytometry analysis. Cells were added to 96 well U bottom plates at a concentration of 100,000 cells/well. Plates were spun at 300 g for 3 minutes and supernatant was discarded. Sytox green (Invitrogen) Live/Dead stain was added to the cells and incubated for 10 minutes at room temperature in a dark chamber. The cells were washed twice with PBS, and the supernatant was discarded. A 12 point 1:3 serial dilution with a starting concentration of 100 nM of primary antibody was prepared. The dilution series was added to cells and incubated for 1 hour at 4° C. in the dark. Plates were spun at 300 g for 3 minutes, the supernatants discarded, and cells washed twice with FACS running buffer (Becton Dickinson (BD), Franklin Lakes, N.J.). […]
binder,measurement,setting,value
B1,EC50,[1],0.57 nM
same,Kd,[2],8.1 nM
same,fold decrease in binding affinity compared to WT G4S linker,SEQ ID NO 50,2 fold
same,fold decrease in binding affinity compared to WT G4S linker,SEQ ID NO 46,2 fold
same,fold decrease in binding affinity compared to WT G4S linker,SEQ ID NO 47,2 fold
same,fold decrease in binding affinity compared to WT G4S linker,SEQ ID NO 52,2 fold
same,fold decrease in binding affinity compared to WT G4S linker,[3],6 fold
same,fold decrease in binding affinity compared to WT G4S linker,SEQ ID NO 49,2 fold
same,fold decrease in binding affinity compared to WT G4S linker,SEQ ID NO 51,2 fold
same,fold decrease in binding affinity compared to WT G4S linker,SEQ ID NO 53,2 fold
same,fold decrease in binding affinity compared to WT G4S linker,SEQ ID NO 48,2 fold
same,EC50,[4],0.78 nM
same,Kd,(G4S)4 peptide,3.6 nM
same,Kd,[5],0.57 nM
